Source: the supplement of paper PMC10065799, “High-throughput profiling of sequence recognition by tyrosine kinases and SH2 domains using bacterial peptide display” (eLife, 2023)

Experiments:
c-Src SH2 = experiment: SH2 binding enrichment of the phosphorylated peptide, bacterial display (enrichment ratio); higher = better substrate or ligand; peptides without Tyr show the background
SHP2-C SH2 = experiment: as above
Grb2 SH2 = Grb2 SH2 (UniProt P62993); experiment: as above
c-Src = experiment: phosphorylation enrichment, bacterial display (enrichment ratio); higher = better substrate or ligand; peptides without Tyr show the background
Jak2 = Jak2 (UniProt O60674); experiment: as above
Sequence of Jak2 (O60674 whole entry, looked up): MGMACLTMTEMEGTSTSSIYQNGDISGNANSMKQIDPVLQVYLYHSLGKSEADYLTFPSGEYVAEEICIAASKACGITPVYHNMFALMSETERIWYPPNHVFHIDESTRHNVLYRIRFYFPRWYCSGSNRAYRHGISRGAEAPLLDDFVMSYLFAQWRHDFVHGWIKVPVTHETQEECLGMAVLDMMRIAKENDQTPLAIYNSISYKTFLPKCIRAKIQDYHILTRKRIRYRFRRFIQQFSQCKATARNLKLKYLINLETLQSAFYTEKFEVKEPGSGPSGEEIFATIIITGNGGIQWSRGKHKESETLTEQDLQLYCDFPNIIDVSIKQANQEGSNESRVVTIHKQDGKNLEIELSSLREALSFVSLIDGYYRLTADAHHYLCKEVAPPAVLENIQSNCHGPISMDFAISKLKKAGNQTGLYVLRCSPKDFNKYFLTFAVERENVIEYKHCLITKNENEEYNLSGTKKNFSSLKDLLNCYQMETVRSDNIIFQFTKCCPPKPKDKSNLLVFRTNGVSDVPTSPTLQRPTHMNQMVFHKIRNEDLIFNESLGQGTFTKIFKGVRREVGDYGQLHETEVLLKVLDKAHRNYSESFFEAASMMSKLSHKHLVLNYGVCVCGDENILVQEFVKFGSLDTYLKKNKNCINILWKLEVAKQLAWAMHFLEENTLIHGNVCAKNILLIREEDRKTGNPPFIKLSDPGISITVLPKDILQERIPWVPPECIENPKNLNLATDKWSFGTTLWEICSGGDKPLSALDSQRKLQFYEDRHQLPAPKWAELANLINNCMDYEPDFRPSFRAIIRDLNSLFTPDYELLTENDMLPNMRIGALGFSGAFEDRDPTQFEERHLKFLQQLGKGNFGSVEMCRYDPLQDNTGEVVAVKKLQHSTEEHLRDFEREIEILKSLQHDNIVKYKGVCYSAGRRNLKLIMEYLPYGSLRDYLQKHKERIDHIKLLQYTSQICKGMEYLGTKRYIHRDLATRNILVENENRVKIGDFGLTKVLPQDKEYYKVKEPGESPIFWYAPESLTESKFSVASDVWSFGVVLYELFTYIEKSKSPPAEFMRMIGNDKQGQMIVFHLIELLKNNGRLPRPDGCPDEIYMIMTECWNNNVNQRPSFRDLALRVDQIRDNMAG

FGFR3 = FGFR3 (UniProt P22607); experiment: as above
Fer (mouse) = experiment: as above
Hck = Hck (UniProt P08631); experiment: as above
Sequence of Hck (P08631 whole entry, looked up): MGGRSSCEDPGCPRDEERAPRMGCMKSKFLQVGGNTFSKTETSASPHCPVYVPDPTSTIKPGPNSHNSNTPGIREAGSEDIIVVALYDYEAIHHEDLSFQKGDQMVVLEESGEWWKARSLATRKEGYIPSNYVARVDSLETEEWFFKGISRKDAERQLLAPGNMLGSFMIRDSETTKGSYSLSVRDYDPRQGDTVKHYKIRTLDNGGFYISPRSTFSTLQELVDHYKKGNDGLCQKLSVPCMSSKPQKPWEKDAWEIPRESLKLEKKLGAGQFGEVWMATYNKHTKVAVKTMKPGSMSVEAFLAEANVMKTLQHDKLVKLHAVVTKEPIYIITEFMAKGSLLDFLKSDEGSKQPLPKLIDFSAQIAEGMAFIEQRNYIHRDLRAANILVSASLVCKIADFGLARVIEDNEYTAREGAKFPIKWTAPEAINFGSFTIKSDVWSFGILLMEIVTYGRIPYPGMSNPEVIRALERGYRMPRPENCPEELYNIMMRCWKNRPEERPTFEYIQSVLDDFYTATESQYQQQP

AncSZ = experiment: as above
EPHB1 = EPHB1 (UniProt P54762); experiment: as above
Sequence of EPHB1 (P54762 whole entry, looked up): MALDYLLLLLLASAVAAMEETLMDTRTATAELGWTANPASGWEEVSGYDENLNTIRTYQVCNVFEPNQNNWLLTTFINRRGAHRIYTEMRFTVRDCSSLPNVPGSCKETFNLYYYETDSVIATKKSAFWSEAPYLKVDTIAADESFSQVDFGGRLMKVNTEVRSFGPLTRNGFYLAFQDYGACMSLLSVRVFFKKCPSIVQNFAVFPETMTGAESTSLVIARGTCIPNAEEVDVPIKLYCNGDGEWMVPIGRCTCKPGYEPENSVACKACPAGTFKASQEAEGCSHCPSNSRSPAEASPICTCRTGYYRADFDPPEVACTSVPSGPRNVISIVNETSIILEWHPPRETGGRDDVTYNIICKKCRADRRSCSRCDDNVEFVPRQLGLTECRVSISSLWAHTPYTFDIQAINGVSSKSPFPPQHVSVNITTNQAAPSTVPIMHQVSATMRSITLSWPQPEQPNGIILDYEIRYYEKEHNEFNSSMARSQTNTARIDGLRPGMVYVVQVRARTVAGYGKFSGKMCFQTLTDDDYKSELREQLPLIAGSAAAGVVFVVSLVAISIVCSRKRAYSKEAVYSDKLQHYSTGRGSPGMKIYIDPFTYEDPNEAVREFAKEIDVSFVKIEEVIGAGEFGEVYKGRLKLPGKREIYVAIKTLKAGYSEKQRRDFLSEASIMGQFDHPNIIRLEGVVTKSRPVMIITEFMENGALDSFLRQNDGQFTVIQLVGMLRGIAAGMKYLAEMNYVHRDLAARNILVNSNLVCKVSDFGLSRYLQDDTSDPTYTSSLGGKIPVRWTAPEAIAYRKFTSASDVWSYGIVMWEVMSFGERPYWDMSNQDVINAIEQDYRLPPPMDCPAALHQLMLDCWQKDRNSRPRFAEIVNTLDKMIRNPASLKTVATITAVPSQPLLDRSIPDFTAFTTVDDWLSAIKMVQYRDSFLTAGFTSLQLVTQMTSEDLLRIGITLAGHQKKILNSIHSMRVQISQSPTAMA

Fes = Fes (UniProt P07332); experiment: as above
Sequence of Fes (P07332 whole entry, looked up): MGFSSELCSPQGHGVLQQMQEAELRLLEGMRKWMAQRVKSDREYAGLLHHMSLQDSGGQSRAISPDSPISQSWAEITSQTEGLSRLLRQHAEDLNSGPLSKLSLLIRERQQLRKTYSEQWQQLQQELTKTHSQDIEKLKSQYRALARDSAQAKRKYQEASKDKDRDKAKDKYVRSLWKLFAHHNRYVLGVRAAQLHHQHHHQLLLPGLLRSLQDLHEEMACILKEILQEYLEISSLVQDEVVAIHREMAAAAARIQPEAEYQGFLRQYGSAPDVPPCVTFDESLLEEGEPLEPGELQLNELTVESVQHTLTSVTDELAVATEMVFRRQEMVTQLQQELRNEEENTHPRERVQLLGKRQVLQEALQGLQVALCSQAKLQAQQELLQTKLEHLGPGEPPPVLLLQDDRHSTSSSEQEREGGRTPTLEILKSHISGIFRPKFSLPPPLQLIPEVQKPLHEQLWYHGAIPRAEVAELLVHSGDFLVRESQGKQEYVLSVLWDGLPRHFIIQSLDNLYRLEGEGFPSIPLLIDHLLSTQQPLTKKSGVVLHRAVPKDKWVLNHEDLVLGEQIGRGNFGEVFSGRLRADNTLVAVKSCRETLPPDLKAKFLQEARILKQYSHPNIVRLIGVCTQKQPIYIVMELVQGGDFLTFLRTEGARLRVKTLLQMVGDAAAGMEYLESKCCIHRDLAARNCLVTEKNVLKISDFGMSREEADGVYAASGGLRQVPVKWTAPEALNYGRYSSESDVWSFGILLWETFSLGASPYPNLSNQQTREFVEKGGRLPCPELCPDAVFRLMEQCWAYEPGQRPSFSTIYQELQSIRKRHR

FGFR1 = FGFR1 (UniProt P11362); experiment: as above
c-Abl (mouse) = experiment: as above
MERTK = MERTK (UniProt Q12866); experiment: as above
EPHB2 = EPHB2 (UniProt P29323); experiment: as above
Sequence of EPHB2 (P29323 whole entry, looked up): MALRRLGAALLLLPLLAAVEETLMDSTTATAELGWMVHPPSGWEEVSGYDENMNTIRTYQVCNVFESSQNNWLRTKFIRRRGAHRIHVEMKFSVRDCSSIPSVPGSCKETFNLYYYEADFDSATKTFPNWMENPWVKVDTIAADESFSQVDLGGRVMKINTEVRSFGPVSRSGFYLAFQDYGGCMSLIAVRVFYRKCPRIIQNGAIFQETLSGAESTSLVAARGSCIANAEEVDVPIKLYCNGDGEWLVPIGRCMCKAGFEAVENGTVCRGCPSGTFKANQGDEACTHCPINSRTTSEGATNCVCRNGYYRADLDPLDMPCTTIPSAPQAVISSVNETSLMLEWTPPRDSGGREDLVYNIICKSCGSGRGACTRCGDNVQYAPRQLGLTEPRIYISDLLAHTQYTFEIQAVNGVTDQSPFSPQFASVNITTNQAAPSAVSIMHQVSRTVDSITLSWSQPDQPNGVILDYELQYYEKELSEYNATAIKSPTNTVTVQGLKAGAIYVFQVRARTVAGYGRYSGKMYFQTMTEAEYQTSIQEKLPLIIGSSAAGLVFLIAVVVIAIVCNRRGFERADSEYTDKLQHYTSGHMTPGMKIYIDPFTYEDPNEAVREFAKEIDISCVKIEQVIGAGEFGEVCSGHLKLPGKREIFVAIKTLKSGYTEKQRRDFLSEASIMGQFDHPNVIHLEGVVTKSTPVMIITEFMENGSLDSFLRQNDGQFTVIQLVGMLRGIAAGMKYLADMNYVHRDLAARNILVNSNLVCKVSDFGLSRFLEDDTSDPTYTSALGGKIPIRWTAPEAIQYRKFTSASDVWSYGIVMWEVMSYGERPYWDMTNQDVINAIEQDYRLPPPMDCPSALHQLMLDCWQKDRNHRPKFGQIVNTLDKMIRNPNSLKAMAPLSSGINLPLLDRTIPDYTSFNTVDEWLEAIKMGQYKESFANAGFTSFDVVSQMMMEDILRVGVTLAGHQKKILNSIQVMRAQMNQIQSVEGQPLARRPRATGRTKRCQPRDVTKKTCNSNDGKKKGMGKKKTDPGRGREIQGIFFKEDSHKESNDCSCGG

Fyn = Fyn (UniProt P06241); experiment: as above
Sequence of Fyn (P06241 whole entry, looked up, the tested form may be a part): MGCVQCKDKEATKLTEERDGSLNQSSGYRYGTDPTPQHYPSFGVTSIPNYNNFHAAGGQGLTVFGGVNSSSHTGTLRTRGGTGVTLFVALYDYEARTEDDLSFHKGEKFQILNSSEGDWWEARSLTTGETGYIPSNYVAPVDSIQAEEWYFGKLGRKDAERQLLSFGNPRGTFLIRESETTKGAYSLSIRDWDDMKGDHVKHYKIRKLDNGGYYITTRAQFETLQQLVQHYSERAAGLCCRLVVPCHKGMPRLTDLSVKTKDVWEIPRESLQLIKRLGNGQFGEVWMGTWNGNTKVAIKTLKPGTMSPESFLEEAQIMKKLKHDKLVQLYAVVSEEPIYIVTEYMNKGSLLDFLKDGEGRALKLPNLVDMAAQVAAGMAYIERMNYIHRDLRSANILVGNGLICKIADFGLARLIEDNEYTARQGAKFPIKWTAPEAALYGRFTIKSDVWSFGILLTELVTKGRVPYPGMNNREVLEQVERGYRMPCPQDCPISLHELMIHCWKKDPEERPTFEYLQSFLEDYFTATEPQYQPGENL
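Wherever SH2 binding enrichment of the phosphorylated peptide, bacterial display is given: peptide library displayed on the E. coli surface as eCPX fusions, selected cells deep-sequenced, score is each peptide's frequency after selection divided by its frequency in the input.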
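Wherever phosphorylation enrichment, bacterial display is given: 11-residue human phosphosite peptides and single-mutation variants displayed on the E. coli surface, counted by deep sequencing, each peptide's frequency after selection divided by its frequency in the unselected input library; frequency after pTyr selection over input frequency; kinase dosed for 20-30% of maximal phosphorylation in three min.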

SH2 binding enrichment (c-Src SH2) | SH2 binding enrichment (SHP2-C SH2) | SH2 binding enrichment (Grb2 SH2) | Sequence | phosphorylation enrichment (c-Src) | phosphorylation enrichment (Jak2) | phosphorylation enrichment (FGFR3) | phosphorylation enrichment (Fer (mouse)) | phosphorylation enrichment (Hck) | phosphorylation enrichment (AncSZ) | phosphorylation enrichment (EPHB1) | phosphorylation enrichment (Fes) | phosphorylation enrichment (FGFR1) | phosphorylation enrichment (c-Abl (mouse)) | phosphorylation enrichment (MERTK) | phosphorylation enrichment (EPHB2) | phosphorylation enrichment (Fyn)
5.64 | 1.1 | 0.913 | CTTIPYNYMCN [TP53_Y234_H233P] | 0.55 | 0.791 | 0.605 | 0.424 | 0.433 | 1.18 | 0.528 | 0.863 | 0.543 | 0.615 | 0.418 | 0.509 | 0.47
0.665 | 0.576 | 0.642 | PDDPDYSLVDD [PSTPIP2_Y323_N322D] | 0.648 | 2.02 | 1.01 | 0.894 | 0.707 | 1.76 | 1.13 | 1.97 | 0.568 | 1.04 | 0.668 | 0.963 | 0.569
0.468 | 0.832 | 0.985 | GIVEDYRPRFF [ACVRL1_Y421_P424R_YF] | 0.459 | 0.816 | 0.655 | 0.513 | 0.427 | 0.811 | 0.616 | 0.814 | 0.467 | 0.681 | 0.626 | 0.468 | 0.372
0.578 | 0.744 | 1.02 | VRSNHYDPEED [TJP1_Y1346] | 0.445 | 0.974 | 0.748 | 0.49 | 0.579 | 1.27 | 0.494 | 1.19 | 0.66 | 0.688 | 0.526 | 0.608 | 0.568
0.455 | 0.719 | 0.784 | AFGGGYGGVLT [KRT19_Y65_YF] | 0.38 | 0.625 | 0.446 | 0.312 | 0.454 | 0.699 | 0.478 | 0.647 | 0.338 | 0.685 | 0.286 | 0.407 | 0.378
0.543 | 0.92 | 0.756 | NRSSLYLVAGP [KIAA1614_Y1083] | 0.434 | 0.698 | 0.607 | 0.495 | 0.619 | 0.915 | 0.591 | 0.91 | 0.556 | 0.642 | 1.09 | 0.517 | 0.534
0.599 | 0.713 | 1.06 | PPSGEYFGHCG [TRIP6_Y275_Q278H] | 0.509 | 0.999 | 1.18 | 0.668 | 0.983 | 1.69 | 0.85 | 1.38 | 0.698 | 0.904 | 0.529 | 1.02 | 0.698
0.534 | 0.746 | 0.819 | SEDANYMRVSC [TTC3_Y1288_K1289M] | 0.468 | 0.743 | 0.742 | 0.645 | 0.563 | 1.03 | 2.98 | 0.958 | 0.735 | 0.7 | 0.455 | 1.42 | 0.529
0.535 | 0.637 | 0.725 | SDYSSYARTSI [TERT_Y949] | 0.897 | 0.725 | 0.7 | 0.542 | 0.862 | 0.792 | 1.63 | 0.558 | 0.553 | 0.639 | 0.52 | 2.84 | 0.845
0.532 | 0.647 | 0.907 | HTKKNYGNSSV [HDX_Y197_A193T] | 0.472 | 0.433 | 0.515 | 0.393 | 0.462 | 0.443 | 0.181 | 0.656 | 0.252 | 0.331 | 0.442 | 0.403 | 0.337
1.67 | 9.73 | 0.636 | NMRSTYAKLAA [SEC22B_Y193_H190R] | 0.444 | 0.587 | 0.403 | 0.439 | 0.456 | 0.563 | 0.373 | 0.561 | 0.359 | 0.453 | 0.49 | 0.397 | 0.407
0.299 | 0.571 | 0.709 | NCLRQYVAGRF [CRB1_Y711_E710Q] | 0.444 | 0.62 | 0.467 | 0.367 | 0.337 | 0.993 | 0.39 | 0.646 | 0.382 | 0.576 | 0.456 | 0.492 | 0.477
0.566 | 1.01 | 0.905 | TFAVSYLPDMS [FLNC_Y1602_T1599A_YF] | 0.378 | 0.741 | 0.816 | 0.439 | 0.5 | 0.939 | 0.598 | 1.21 | 0.5 | 0.61 | 0.441 | 0.392 | 0.466
0.818 | 0.8 | 0.969 | PLKFLYPNIDR [STAT1_Y668_K673R_YF] | 0.55 | 1.06 | 0.953 | 0.602 | 0.6 | 1.31 | 0.941 | 1.24 | 0.443 | 0.891 | 0.519 | 0.664 | 0.796
0.452 | 0.722 | 0.645 | VRFMANTDETF [F8_Y450_Y450N] | 0.44 | 0.849 | 0.653 | 0.436 | 0.462 | 0.928 | 0.701 | 1.12 | 0.439 | 0.604 | 0.408 | 0.568 | 0.408
1.2 | 0.767 | 0.86 | WHHTFYNELCV [ACTC1_Y93_R97C] | 0.73 | 1.03 | 0.979 | 1.04 | 1.18 | 1.19 | 0.793 | 1.23 | 0.881 | 0.761 | 0.905 | 0.658 | 0.574

SH2 binding enrichment (c-Src SH2) | SH2 binding enrichment (SHP2-C SH2) | SH2 binding enrichment (Grb2 SH2) | Sequence | phosphorylation enrichment (c-Src) | phosphorylation enrichment (Jak2) | phosphorylation enrichment (FGFR3) | phosphorylation enrichment (Fer (mouse)) | phosphorylation enrichment (Hck) | phosphorylation enrichment (AncSZ) | phosphorylation enrichment (EPHB1) | phosphorylation enrichment (Fes) | phosphorylation enrichment (FGFR1) | phosphorylation enrichment (c-Abl (mouse)) | phosphorylation enrichment (MERTK) | phosphorylation enrichment (EPHB2) | phosphorylation enrichment (Fyn)
0.425 | 0.402 | 0.471 | ENEGTYVCIAA [ADAMTSL3_Y1365_T1370A] | 1.75 | 1.05 | 1.62 | 1.05 | 1.21 | 1.34 | 1.55 | 1.36 | 1.53 | 1.08 | 0.69 | 1.09 | 1.39
0.687 | 0.778 | 0.882 | PEADKYCLTYA [FGG_Y300_R301C] | 0.821 | 1.38 | 1.09 | 0.735 | 0.601 | 1.27 | 0.722 | 1.2 | 0.486 | 0.917 | 0.477 | 0.599 | 0.691
0.244 | 0.472 | 0.675 | FSGQVYRQRRK [TH_Y230_D227G] | 1.13 | 0.769 | 0.64 | 0.582 | 0.718 | 0.855 | 0.604 | 0.697 | 0.546 | 0.789 | 1 | 0.772 | 0.774
0.438 | 0.793 | 0.734 | YGSSSYGGAGG [RPA2_Y14] | 0.442 | 0.476 | 0.409 | 0.381 | 0.39 | 0.457 | 0.714 | 0.626 | 0.35 | 0.899 | 0.359 | 0.305 | 0.414
2.56 | 0.644 | 0.95 | NTGVYYDLYGG [PTPN11_Y63_D61V] | 5.31 | 2.33 | 10.8 | 2.49 | 6.5 | 1.88 | 6.16 | 1.18 | 13.7 | 0.715 | 7.75 | 5.04 | 6.07
0.472 | 1.05 | 0.664 | QEALEYFMKQV [PIK3CA_Y1038_M1043V] | 0.463 | 0.849 | 0.565 | 0.402 | 0.416 | 1.18 | 0.467 | 0.978 | 0.408 | 0.597 | 0.289 | 0.392 | 0.382
0.614 | 0.954 | 1.06 | TLEKYYFAFPG [SLC1A1_Y51_F50Y] | 6.16 | 8.54 | 12 | 0.632 | 3.38 | 1.75 | 7.36 | 1.09 | 14.6 | 9.74 | 11.5 | 11.1 | 4.5
0.412 | 0.376 | 0.779 | KLADMYGGGKD [CDH1_Y876_E880K] | 0.353 | 0.547 | 0.424 | 0.414 | 0.476 | 0.584 | 0.468 | 0.692 | 0.462 | 0.528 | 0.346 | 0.497 | 0.425
0.475 | 0.719 | 0.867 | EVDELYREAPI [MYL12B_Y143] | 0.52 | 1.29 | 1.11 | 0.62 | 0.705 | 1.27 | 0.784 | 1.39 | 0.86 | 0.962 | 0.598 | 0.654 | 0.654
0.485 | 0.585 | 0.686 | NFFEFYVDDPL [GCHFR_Y48_P53L_YF] | 0.489 | 1.07 | 0.874 | 0.428 | 0.439 | 1.09 | 0.773 | 1.11 | 0.501 | 0.78 | 0.413 | 0.52 | 0.436
0.723 | 0.491 | 0.827 | QNTGDYCDLFG [PTPN11_Y62_Y63C_YF] | 0.789 | 1.3 | 3.7 | 0.966 | 0.696 | 3.53 | 9.89 | 1.41 | 5.82 | 1.17 | 0.806 | 8.46 | 0.681
0.584 | 0.764 | 0.769 | SAPDSYIGIGN [SLC38A4_Y27] | 0.437 | 0.739 | 0.556 | 0.404 | 0.495 | 0.669 | 0.484 | 0.742 | 0.502 | 0.594 | 0.59 | 0.533 | 0.511
0.728 | 0.812 | 0.751 | IINENYDYLKG [NUP98_Y1664] | 0.469 | 0.803 | 0.518 | 0.401 | 1.07 | 0.846 | 0.657 | 0.871 | 0.535 | 0.649 | 0.491 | 0.707 | 0.406
0.587 | 1.44 | 1.05 | GTYVIYVRFSG [FLNB_Y1687_G1691S] | 0.532 | 1.31 | 0.828 | 0.639 | 0.514 | 1.26 | 0.696 | 1.3 | 0.447 | 0.941 | 0.455 | 0.543 | 0.509
0.392 | 0.641 | 0.799 | RRIHSYRGHLW [VHL_Y112] | 3.66 | 4.65 | 1.93 | 1.47 | 2.59 | 2.9 | 2.21 | 2.9 | 2.16 | 3.28 | 2.69 | 1.46 | 1.91
0.491 | 0.607 | 0.711 | IDQDKYAVHFI [FLNA_Y2388_R2391H] | 0.433 | 0.801 | 0.61 | 0.625 | 0.467 | 0.886 | 0.483 | 0.945 | 0.468 | 0.734 | 0.388 | 0.547 | 0.396

Sequence | SH2 binding enrichment (c-Src SH2) | SH2 binding enrichment (SHP2-C SH2) | SH2 binding enrichment (Grb2 SH2) | phosphorylation enrichment (c-Src) | phosphorylation enrichment (Jak2) | phosphorylation enrichment (FGFR3) | phosphorylation enrichment (Fer (mouse)) | phosphorylation enrichment (Hck) | phosphorylation enrichment (AncSZ) | phosphorylation enrichment (EPHB1) | phosphorylation enrichment (Fes) | phosphorylation enrichment (FGFR1) | phosphorylation enrichment (c-Abl (mouse)) | phosphorylation enrichment (MERTK) | phosphorylation enrichment (EPHB2) | phosphorylation enrichment (Fyn)
SQGRQYQELPR [KCNH2_Y1009_R1005Q] | 1.41 | 0.545 | 0.82 | 0.423 | 0.517 | 0.477 | 0.402 | 0.668 | 0.666 | 0.354 | 0.568 | 0.483 | 0.473 | 0.412 | 0.402 | 0.45
